Results reported in patent US20150290329A1.

Columns and labels:
[1] = molecular target: 8-arm-PEG-P2 (20 kDa); assay: cell-based or functional assay
[2] = molecular target: 8-arm-PEG-P1 (40 kDa); assay: cell-based or functional assay

Chain of 8-arm-PEG-P2 (20 kDa) (peptide, as listed by the source): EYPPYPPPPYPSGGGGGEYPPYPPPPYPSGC

storage modulus G′ of the hydrogel 8P2-20k [1]: 15 Pa
storage modulus G′ of the hydrogel 8P1-40k [2]: 3.9 Pa
Substance: C7 recombinant protein polymer (seven repeats of the CC43 WW domain) (designed binder)
